Data from patent US20140093496A1 (Chugai, published 2014).
Where a chain is given by its changes, count along the chain named. In names and notes the source's numbering stands. Each block holds one binder with its values, some of them ahead of it.

Experiments:
[1] = molecular target: T1, FcγRIIb extracellular domain with C-terminal His tag (human, UniProt P31994 43-217); assay: SPR (Biacore): antibody captured on the chip, FcγRIIb as analyte; amount bound per amount captured, relative to GpH7-B3/GpL16-k0 = 100
T1 construct: extracellular domain; also called FcgRIIb; FcγRIIb extracellular region; not shown: His tag at the C terminus
T1 sequence (looked up): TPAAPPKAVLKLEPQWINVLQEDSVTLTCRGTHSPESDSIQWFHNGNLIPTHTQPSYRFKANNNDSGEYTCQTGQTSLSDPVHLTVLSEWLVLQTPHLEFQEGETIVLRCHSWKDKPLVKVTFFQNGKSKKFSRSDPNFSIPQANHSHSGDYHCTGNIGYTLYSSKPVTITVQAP

[2] = molecular target: T1, FcγRIIb extracellular domain with …; assay: SPR (Biacore), antibody captured, FcγR analyte
Description: (§1) Furthermore, KD(IIaR)/KD(IIb) and KD(IIaH)/KD(IIb) in the table respectively show the value obtained by dividing the KD value of each variant for FcγRIIaR by the KD value of each variant for FcγRIIb, and the value obtained by dividing the KD value of each variant for FcγRIIaH by the KD value of each variant for FcγRIIb. KD(IIb) of the parent polypeptide/KD(IIb) of the altered polypeptide refers to a value obtained by dividing the KD value of the parent polypeptide for FcγRIIb by the KD value of each variant for FcγRIIb.
(§2) Kinetic analyses for calculating the KD values of each altered antibody for FcγR were performed according to the following method. First, antibodies of interest were captured onto the above-mentioned sensor chips, and an Fcγ receptor diluted with the running buffer was allowed to interact. The Biacore Evaluation Software was used to globally fit the measured results to the obtained sensorgram using the 1:1 Langmuir binding model, and the association rate constant ka (L/mol/s) and the dissociation rate constant kd (1/s) were calculated; and from those values the dissociation constants KD (mol/L) were calculated.

[3] = molecular target: T2, FcγRIIIa type V extracellular domain with C-terminal His tag (human, UniProt P08637 17-208); assay: SPR (Biacore), antibody captured, FcγR analyte
T2 construct: extracellular domain; also called FcγRIIIaV; FcgRIIIaV; not shown: His tag at the C terminus
Description: as §1, §2
T2 sequence (P08637 17-208 F176V): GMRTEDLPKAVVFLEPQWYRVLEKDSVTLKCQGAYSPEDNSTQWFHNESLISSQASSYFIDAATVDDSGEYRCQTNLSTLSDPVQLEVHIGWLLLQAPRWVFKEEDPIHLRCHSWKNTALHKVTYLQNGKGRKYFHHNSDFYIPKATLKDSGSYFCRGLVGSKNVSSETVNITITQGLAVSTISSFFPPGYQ

[4] = molecular target: T3, FcγRIIa type R extracellular domain with C-terminal His tag (human, UniProt P12318 34-217); assay: SPR (Biacore), antibody captured, FcγR analyte
T3 chain: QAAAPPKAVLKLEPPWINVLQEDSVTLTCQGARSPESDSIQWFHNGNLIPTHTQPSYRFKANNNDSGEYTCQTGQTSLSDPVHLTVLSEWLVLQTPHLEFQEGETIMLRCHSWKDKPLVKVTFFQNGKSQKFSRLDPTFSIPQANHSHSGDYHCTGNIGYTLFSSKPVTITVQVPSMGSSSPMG
Description: as §1, §2

[5] = molecular target: T4, FcγRIIb extracellular domain, C-terminal His tag (human, UniProt P31994 43-217); assay: SPR (Biacore), antibody captured, FcγR as analyte
T4 construct: extracellular domain; also called FcgRIIb; CD32B; not shown: His tag at the C terminus
T4 sequence (looked up): T1 sequence (looked up)
Description: (§3) Furthermore, KD(IIaR)/KD(IIb) and KD(IIaH)/KD(IIb) in the table respectively represent the value obtained by dividing the KD value of each variant for FcγRIIaR by the KD value of each variant for FcγRIIb, and the value obtained by dividing the KD value of each variant for FcγRIIaH by the KD value of each variant for FcγRIIb. KD(IIb) of the parent polypeptide/KD(IIb) of the altered polypeptide refers to the value obtained by dividing the KD value of the parent polypeptide for FcγRIIb by the KD value of each variant for FcγRIIb.
as §2

[6] = molecular target: T5, FcγRIIa type H extracellular domain with C-terminal His tag (human, UniProt P12318 34-217); assay: SPR (Biacore)
T5 construct: extracellular domain; also called FcgRIIaH; FcγRIIaH
T5 sequence (looked up): T3 chain with R134H

[7] = molecular target: T6, FcγRIIIa type V extracellular domain with C-terminal His tag (human, UniProt P08637 17-208); assay: SPR (Biacore)
T6 construct: extracellular domain; also called FcgRIIIaV; FcγRIIIaV
T6 sequence (P08637 17-208 F176V): as the sequence (P08637 17-208 F176V) above

[8] = molecular target: T7, FcγRIa extracellular domain, C-terminal His tag (human, UniProt P12314 16-292); assay: SPR (Biacore), antibody captured, FcγR as analyte
T7 construct: the whole entry is named; also called FcgRIa; CD64A; not shown: His tag at the C terminus
Description: as §3, §2

[9] = molecular target: T8, FcγRIIa type R extracellular domain, C-terminal His tag (human, UniProt P12318 34-217); assay: SPR (Biacore), antibody captured, FcγR as analyte
T8 construct: extracellular domain; also called FcgRIIaR; FcγRIIaR; not shown: His tag at the C terminus
T8 sequence (looked up): T3 chain
Description: as §3, §2

[10] = molecular target: T9, FcγRIIa type R extracellular domain with C-terminal His tag (human, UniProt P12318 34-217); assay: SPR (Biacore)
T9 construct: extracellular domain; also called FcgRIIaR; FcγRIIaR
T9 sequence (looked up): T3 chain

[11] = molecular target: T10, FcγRIa extracellular domain with C-terminal His tag (human, UniProt P12314 16-292); assay: SPR (Biacore)
T10 construct: also called FcgRIa

[12] = molecular target: T11, FcγRIIb extracellular domain with C-terminal His tag (human, UniProt P31994 43-217); assay: SPR (Biacore)
T11 construct: extracellular domain; also called FcgRIIb
T11 sequence (looked up): T1 sequence (looked up)

T10 sequence (P12314 16-292): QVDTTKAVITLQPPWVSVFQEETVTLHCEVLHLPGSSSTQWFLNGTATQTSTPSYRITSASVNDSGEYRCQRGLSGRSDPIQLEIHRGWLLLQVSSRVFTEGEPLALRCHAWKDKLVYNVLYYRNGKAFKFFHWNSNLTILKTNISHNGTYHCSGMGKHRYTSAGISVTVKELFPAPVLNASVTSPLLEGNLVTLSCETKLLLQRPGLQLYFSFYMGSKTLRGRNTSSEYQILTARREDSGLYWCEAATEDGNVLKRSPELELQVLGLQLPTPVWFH
T7 sequence (P12314 16-292): as above

B3: G237Y (antibody, human IgG1, kappa)
heavy chain: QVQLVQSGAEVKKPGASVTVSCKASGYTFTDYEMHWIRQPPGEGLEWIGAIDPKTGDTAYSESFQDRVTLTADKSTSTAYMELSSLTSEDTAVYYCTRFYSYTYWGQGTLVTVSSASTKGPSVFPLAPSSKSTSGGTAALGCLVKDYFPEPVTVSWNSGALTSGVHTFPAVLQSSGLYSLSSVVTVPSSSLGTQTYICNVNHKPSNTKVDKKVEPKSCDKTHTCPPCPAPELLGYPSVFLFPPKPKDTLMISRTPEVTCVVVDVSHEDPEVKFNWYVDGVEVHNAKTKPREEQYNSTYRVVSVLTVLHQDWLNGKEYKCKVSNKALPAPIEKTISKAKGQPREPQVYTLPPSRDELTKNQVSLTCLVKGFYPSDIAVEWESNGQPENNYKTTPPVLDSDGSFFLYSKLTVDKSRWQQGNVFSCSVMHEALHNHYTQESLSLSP
light chain: DIVMTQSPLSLPVTPGEPASISCQASESLVHSNRNTYLHWYLQKPGQSPQLLIYKVSNRFSGVPDRFSGSGSGTDFTLKISRVEAEDVGVYYCSQNTHVPPTFGQGTKVEIERTVAAPSVFIFPPSDEQLKSGTASVVCLLNNFYPREAKVQWKVDNALQSGNSQESVTEQDSKDSTYSLSSTLTLSKADYEKHKVYACEVTHQGLSSPVTKSFNRGEC
notes: Named on the sheet only by its alteration; also called B3 variant of GpH7-B3/GpL16-k0 with G237Y (no P238D)
binding result [1]: binds

B4: G237E (antibody, human IgG1, kappa)
heavy chain: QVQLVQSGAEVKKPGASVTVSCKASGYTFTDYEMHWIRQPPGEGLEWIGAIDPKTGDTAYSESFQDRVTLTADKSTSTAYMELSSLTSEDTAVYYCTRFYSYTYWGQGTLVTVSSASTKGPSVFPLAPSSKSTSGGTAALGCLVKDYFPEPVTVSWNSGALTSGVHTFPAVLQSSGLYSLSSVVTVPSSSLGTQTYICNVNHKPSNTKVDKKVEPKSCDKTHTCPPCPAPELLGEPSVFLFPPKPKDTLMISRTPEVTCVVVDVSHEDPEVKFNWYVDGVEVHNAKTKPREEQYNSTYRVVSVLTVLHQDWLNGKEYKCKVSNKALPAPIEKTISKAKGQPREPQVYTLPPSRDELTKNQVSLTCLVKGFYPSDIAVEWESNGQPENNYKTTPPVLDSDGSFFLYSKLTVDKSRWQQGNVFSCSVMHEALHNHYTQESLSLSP
light chain: B3 light chain
notes: Named on the sheet only by its alteration; also called B3 variant of GpH7-B3/GpL16-k0 with G237E (no P238D)
binding result [1]: binds

B6: G237D (antibody, human IgG1, kappa)
heavy chain: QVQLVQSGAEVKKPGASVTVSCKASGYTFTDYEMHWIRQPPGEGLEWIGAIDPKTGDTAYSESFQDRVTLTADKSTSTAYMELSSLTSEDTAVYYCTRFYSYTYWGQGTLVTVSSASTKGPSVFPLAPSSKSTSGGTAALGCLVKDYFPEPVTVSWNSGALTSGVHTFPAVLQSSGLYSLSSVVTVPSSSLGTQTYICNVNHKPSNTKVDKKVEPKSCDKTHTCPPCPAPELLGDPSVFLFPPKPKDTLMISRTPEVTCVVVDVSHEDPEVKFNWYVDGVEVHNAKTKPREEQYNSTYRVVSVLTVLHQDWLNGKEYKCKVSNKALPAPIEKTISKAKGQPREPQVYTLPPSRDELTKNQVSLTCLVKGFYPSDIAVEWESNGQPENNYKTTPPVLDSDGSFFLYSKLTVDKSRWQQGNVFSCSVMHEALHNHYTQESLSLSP
light chain: B3 light chain
notes: Named on the sheet only by its alteration; also called B3 variant of GpH7-B3/GpL16-k0 with G237D (no P238D)
binding result [1]: binds

B11: IL6R-PD080/IL6R-L (antibody, human IgG1, kappa)
heavy: QVQLQESGPGLVKPSETLSLTCAVSGHSISHDHAWSWVRQPPGEGLEWIGFISYSGITNYNPSLQGRVTISRDNSKNTLYLQMNSLRAEDTAVYYCARSLARTTAMDYWGEGTLVTVSSASTKGPSVFPLAPSSKSTSGGTAALGCLVKDYFPEPVTVSWNSGALTSGVHTFPAVLQSSGLYSLSSVVTVPSSSLGTQTYICNVNHKPSNTKVDKKVEPKSCDKTHTCPPCPAPELLGDDSVFLFPPKPKDTLYISRTPEVTCVVVDVSHEDPEVKFNWYVDGVEVHNAKTKPREEQYNSTYRVVSVLTVLHQDWLNGKEYKCKVSNKALPAPIEKTISKAKGQPREPQVYTLPPSRDELTKNQVSLTCLVKGFYPSDIAVEWESNGQPENNYKTTPPVLDSDGSFFLYSKLTVDKSRWQQGNVFSCSVMHEALHYHYTQKSLSLSP
light: not shown
notes: IL6R-F11 with P238D/G237D; copies: 2 + 2
Kd [2]: 2 µM | Kd [3]: 43 µM | Kd [4]: 21 µM

B12: IL6R-2B172/IL6R-L (antibody, human IgG1, kappa)
heavy: B11 heavy with D239G, Y254M, V325M, Y436N, K441E
light: not shown
notes: IgG1; P238D/V323M (EU numbering) introduced into IL6R-B3
Kd [8]: 0.003 µM | Kd [9]: 6.1 µM

B14: IL6R-BP106/IL6R-L (antibody, human IgG1, kappa)
heavy: B11 heavy with D239G, Y254M, H270D, Y436N, K441E
light: not shown
notes: IgG1; P238D/H268D (EU numbering) introduced into IL6R-B3
Kd [8]: 0.004 µM | Kd [9]: 11 µM

B16: IL6R-BP180/IL6R-L (antibody, human IgG1, kappa)
heavy: B11 heavy with Y254M, P273G, A332K, Y436N, K441E
light: not shown
notes: G237D/P238D/P271G/A330K (EU) in IL6R-B3; copies: 2 + 2
Kd [11]: 0.098 µM | Kd [7]: 70 µM

B17: IL6R-BP185/IL6R-L (antibody, human IgG1, kappa)
heavy: B11 heavy with E235D, L236Y, Y254M, P273G, K328A, A332K, Y436N, K441E
light: not shown
notes: E233D/L234Y/G237D/P238D/P271G/K326A/A330K (EU) in IL6R-B3; copies: 2 + 2
Kd [10]: 0.88 µM | Kd [12]: 0.069 µM | Kd [7]: 36 µM

B20: IL6R-BP187/IL6R-L (antibody, human IgG1, kappa)
heavy: B11 heavy with L236Y, D239G, Y254M, P273G, K328A, A332K, Y436N, K441E
light: not shown
notes: L234Y/P238D/P271G/K326A/A330K (EU) in IL6R-B3; copies: 2 + 2
Kd [11]: 0.025 µM | Kd [10]: 2.8 µM | Kd [7]: 56 µM

B22: IL6R-BP117/IL6R-L (antibody, human IgG1, kappa)
heavy: B11 heavy with D239G, Y254M, K328D, Y436N, K441E
light: not shown
notes: IgG1; P238D/K326D (EU numbering) introduced into IL6R-B3
Kd [9]: 9.2 µM | Kd [5]: 0.8 µM

More lines, now with the values ahead:

binding result [1]: binds
B1: G237A (antibody, human IgG1, kappa)
heavy chain: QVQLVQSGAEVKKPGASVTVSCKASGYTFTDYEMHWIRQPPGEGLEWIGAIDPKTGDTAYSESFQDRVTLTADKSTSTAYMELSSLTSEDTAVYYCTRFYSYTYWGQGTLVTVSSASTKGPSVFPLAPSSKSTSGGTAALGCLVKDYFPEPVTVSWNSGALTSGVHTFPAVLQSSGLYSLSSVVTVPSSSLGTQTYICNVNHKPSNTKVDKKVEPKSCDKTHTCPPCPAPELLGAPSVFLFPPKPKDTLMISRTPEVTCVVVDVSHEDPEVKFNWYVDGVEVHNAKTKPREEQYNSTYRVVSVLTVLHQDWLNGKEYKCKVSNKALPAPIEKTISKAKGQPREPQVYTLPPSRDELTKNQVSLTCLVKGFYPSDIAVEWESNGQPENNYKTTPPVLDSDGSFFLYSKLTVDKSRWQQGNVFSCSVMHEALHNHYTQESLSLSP
light chain: B3 light chain
notes: Named on the sheet only by its alteration; also called B3 variant of GpH7-B3/GpL16-k0 with G237A (no P238D)

binding result [1]: binds
B2: G237L (antibody, human IgG1, kappa)
heavy chain: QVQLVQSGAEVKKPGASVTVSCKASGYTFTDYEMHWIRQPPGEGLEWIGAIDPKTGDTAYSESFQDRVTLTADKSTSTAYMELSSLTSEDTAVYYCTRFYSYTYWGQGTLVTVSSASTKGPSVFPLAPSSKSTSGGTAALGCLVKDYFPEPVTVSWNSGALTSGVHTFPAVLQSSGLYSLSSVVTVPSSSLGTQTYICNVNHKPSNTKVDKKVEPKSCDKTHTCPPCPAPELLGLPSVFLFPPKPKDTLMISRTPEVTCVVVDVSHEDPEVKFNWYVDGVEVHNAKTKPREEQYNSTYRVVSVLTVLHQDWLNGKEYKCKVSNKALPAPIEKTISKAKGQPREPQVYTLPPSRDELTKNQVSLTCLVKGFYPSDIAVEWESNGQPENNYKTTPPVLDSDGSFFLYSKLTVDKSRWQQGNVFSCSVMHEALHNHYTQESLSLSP
light chain: B3 light chain
notes: Named on the sheet only by its alteration; also called B3 variant of GpH7-B3/GpL16-k0 with G237L (no P238D)

binding result [1]: binds
B5: G237M (antibody, human IgG1, kappa)
heavy chain: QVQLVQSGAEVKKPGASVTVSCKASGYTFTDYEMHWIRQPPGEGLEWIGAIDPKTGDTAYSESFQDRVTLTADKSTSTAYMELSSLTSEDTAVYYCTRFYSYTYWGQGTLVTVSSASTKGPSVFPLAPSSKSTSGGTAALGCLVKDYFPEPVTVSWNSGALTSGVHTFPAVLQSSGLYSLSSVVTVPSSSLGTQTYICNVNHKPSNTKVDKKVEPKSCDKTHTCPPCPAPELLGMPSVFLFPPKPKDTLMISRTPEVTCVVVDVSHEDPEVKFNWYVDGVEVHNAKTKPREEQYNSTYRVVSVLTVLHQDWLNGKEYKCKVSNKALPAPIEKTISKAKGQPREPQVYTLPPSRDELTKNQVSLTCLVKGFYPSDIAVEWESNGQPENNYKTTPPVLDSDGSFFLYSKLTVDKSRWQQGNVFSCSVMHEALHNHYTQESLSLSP
light chain: B3 light chain
notes: Named on the sheet only by its alteration; also called B3 variant of GpH7-B3/GpL16-k0 with G237M (no P238D)

binding result [1]: binds
B7: L234W (antibody, human IgG1, kappa)
heavy chain: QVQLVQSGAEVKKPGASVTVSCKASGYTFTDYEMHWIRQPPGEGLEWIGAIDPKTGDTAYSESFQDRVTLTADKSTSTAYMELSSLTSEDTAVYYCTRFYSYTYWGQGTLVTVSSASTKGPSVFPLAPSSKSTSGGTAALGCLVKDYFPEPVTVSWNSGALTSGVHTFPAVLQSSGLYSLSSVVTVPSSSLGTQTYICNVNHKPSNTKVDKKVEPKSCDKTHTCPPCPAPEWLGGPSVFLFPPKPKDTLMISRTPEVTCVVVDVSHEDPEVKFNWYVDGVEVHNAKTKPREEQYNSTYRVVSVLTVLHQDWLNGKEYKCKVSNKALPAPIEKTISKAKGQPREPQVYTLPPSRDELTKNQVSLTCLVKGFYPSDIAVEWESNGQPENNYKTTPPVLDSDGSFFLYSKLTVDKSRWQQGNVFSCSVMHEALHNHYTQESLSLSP
light chain: B3 light chain
notes: Named on the sheet only by its alteration; also called B3 variant of GpH7-B3/GpL16-k0 with L234W (no P238D)

Kd [2]: 2 µM | Kd [3]: 37 µM | Kd [4]: 16 µM
B8: IL6R-PD042/IL6R-L (antibody, human IgG1, kappa)
heavy: B11 heavy with L236W, D239G
light: not shown
notes: IL6R-F11 with P238D/L234W; copies: 2 + 2

Kd [5]: 0.8 µM
B9: IL6R-BP136/IL6R-L (antibody, human IgG1, kappa)
heavy: B11 heavy with D239G, Y254M, K328A, Y436N, K441E
light: not shown
notes: IgG1; P238D/K326A (EU numbering) introduced into IL6R-B3

Kd [6]: 7 µM | Kd [7]: 30 µM
B10: IL6R-BP148/IL6R-L (antibody, human IgG1, kappa)
heavy: B11 heavy with E235D, L236Y, Y254M, K328A, A332K, Y436N, K441E
light: not shown
notes: E233D/L234Y/G237D/P238D/K326A/A330K (EU) in IL6R-B3; copies: 2 + 2

Kd [10]: 2.6 µM | Kd [7]: 56 µM
B13: IL6R-BP183/IL6R-L (antibody, human IgG1, kappa)
heavy: B11 heavy with E235D, L236Y, D239G, Y254M, P273G, K328A, A332K, Y436N, K441E
light: not shown
notes: E233D/L234Y/P238D/P271G/K326A/A330K (EU) in IL6R-B3; copies: 2 + 2

Kd [2]: 3 µM | Kd [3]: 37 µM | Kd [4]: 32 µM
B15: IL6R-PD079/IL6R-L (antibody, human IgG1, kappa)
heavy: B11 heavy with D239A
light: not shown
notes: IL6R-F11 with P238D/G237A; copies: 2 + 2

Kd [9]: 9.6 µM | Kd [5]: 1 µM
B18: IL6R-BP120/IL6R-L (antibody, human IgG1, kappa)
heavy: B11 heavy with D239G, Y254M, K328E, Y436N, K441E
light: not shown
notes: IgG1; P238D/K326E (EU numbering) introduced into IL6R-B3

Kd [10]: 2.3 µM | Kd [6]: 30 µM | Kd [7]: 66 µM
B19: IL6R-BP184/IL6R-L (antibody, human IgG1, kappa)
heavy: B11 heavy with E235D, D239G, Y254M, P273G, A332K, Y436N, K441E
light: not shown
notes: E233D/P238D/P271G/A330K (EU) in IL6R-B3; copies: 2 + 2

Kd [9]: 8.4 µM | Kd [5]: 0.9 µM
B21: IL6R-BP102/IL6R-L (antibody, human IgG1, kappa)
heavy: B11 heavy with D239G, Y254M, S269Q, Y436N, K441E
light: not shown
notes: IgG1; P238D/S267Q (EU numbering) introduced into IL6R-B3
